# Data taken from patent US20060002929A1 (published 2006).
# Residue numbers refer to the chain shown, from its start.
# B1: Ab A (antibody, V domains shown)
# VH: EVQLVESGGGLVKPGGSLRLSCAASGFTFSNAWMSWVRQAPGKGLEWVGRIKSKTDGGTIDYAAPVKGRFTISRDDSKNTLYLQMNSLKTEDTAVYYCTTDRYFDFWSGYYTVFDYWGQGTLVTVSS
# VL: DIQMTQSPSSLSASVGDRVTITCRASQGISNHLVWYQQKVGKVPKLLIYAASTLQSGVPSRFSGSGSGTDFTLTISSLQPEDVATYYCQKFNSAPFTFGPGTKVDIKR
# notes: Human anti-OX40L monoclonal antibody from transgenic mice
# B2: Ab B (antibody, V domains shown)
# VH: QVQLQESGPGLVKPSETLSLTCTVSGGSISTYYWNWIRQPAGKGLEWIGRIYISGSTNYNPSLKSRVTMSVDTSKNQFSLKLSSVTAADTAVYYCARDRVDIVATKGHYYYGMDVWGQGTTVTVSS
# VL: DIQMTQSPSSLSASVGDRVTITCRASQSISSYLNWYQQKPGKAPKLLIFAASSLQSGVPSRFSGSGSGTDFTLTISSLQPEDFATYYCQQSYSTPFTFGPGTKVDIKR
# notes: Human anti-OX40L monoclonal antibody
# B3: Ab C (antibody, V domains shown)
# VH: QVQLVESGGGVVQPGRSLRLSCAASGFTFSFYGMHWVRQAPGKGLEWVAVIWYDGSNKYYADSVKGRFTISRDNSKNTLYLQMNSLRAEDTAVYYCARGGYDYVWGSYRRNSDFDYWGQGTLVTVSS
# VL: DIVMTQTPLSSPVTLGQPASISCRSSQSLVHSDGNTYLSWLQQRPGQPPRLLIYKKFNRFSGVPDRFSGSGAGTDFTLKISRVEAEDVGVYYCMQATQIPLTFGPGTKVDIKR
# notes: as for B2
# B4: Ab E (antibody, V domains shown)
# VH: EVQLVESGGGLVKPGGSLRLSCAASGFTFSNAWMSWVRQAPGKGLEWVGRIKRKTDGGTIDYAAPVKGRFTISRADSKNTLFLQMNSLITEDTAVYYCTISYYYDYSGYYYVDHWGQGTLVTVSS
# VL: B1 VL with V40P, F91Y, F96L, P100G, D105E
# notes: as for B2
# B5: hOX40R-Fc (Fc fusion, human, UniProt P43489 29-214, looked up)
# chain: LHCVGDTYPSNDRCCHECRPGNGMVSRCSRSQNTVCRPCGPGFYNDVVSSKPCKPCTWCNLRSGSERKQLCTATQDTVCRCRAGTQPLDSYKPGVDCAPCPPGHFSPGDNQACKPWTNCTLAGKHTLQPASNSSDAICEDRDPPATQPQETQGPPARPITVQPTEAWPRTSQGPSTRPVEVPGGRA
# notes: Defined as 'the human IgG Fc domain fused to the human OX40 receptor'; also called hFc-OX40R; HFc-OX40R; not shown: Fc domain of human IgG
# B6: Ab F (antibody, V domains shown)
# VH: B4 VH
# VL: B1 VL with V40P, F91Y, F96L, P100G, D105E
# notes: as for B2
# B7: Human Fc-OX40L (Fc fusion, UniProt P23510 51-183, looked up)
# chain: QVSHRYPRIQSIKVQFTEYKKEKGFILTSQKEDEIMKVQNNSVIINCDGFYLISLKGYFSQEVNISLHYQKDEEPLFQLKKVRSVNSLMVASLTYKDKVYLNVTTDNTSLDDFHVNGGELILIHQNPGEFCVL
# notes: Defined as 'the Fc domain of human IgG fused to human OX40L'; Made in 293T or COS cells; also called hFc-OX40L; HFc-OX40L; not shown: Fc domain of human IgG
# Key:
# [1] = molecular target: B7; assay: cell-based or functional assay
# [2] = molecular target: B7; assay: BIAcore, immobilized hFc-OX40L
# [3] = molecular target: B7; assay: BIAcore solution equilibrium at 0.2 and 0.6 nM binder, dual-curve one-site fit (KinExA software)
# Description: (§1) Specifically, BIACore chips were prepared as described above in Example 1, with the following modifications. HFc-OX40L was immobilized to the sensor chip at a high density of 8,000 RU. […] Samples were incubated at room temperature for at least five hours to allow samples to reach equilibrium. Samples were then injected over the immobilized hFc-OX40L surface for 30 minutes at 10 μl/min. After the sample injection, the samples were allowed to dissociate for 3 minutes, and then the surface was regenerated by injecting 8 mM glycine, pH 3.0, 1 M NaCl for 30 seconds. The binding signals, measured in RU, obtained were proportional to the free antibody in solution at equilibrium for a given concentration of ligand. The dissociation equilibrium constant (KD) was obtained from nonlinear regression analysis of the competition curves using a dual-curve one-site homogeneous binding model (KinExA software v. 2.3, Sapidyne Instruments Inc., Boise Id.).
# [4] = molecular target: T1, 018-muOX40L (mouse, UniProt P43488); assay: Luminex bead assay: antigen loaded on biotin beads, antibody titrated, detection anti-huIgG-PE [panel Ab C]
# T1 construct: also called mouse OX40L
# T1 sequence (bead-bound control antigen, looked up): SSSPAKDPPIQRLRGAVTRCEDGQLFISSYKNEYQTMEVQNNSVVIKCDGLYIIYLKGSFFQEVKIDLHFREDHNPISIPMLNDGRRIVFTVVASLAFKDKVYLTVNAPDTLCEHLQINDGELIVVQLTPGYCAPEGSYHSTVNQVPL
# [5] = molecular target: B7; assay: BIAcore solution equilibrium: 0.2 nM antibody pre-mixed with 20-0.005 nM hFc-OX40L, free antibody read on immobilized hFc-OX40L
# Description: The binding equilibrium of four of the antibodies was assessed on a BIACore chip as described above in Example 1 with the following modifications. HFc-OX40L was immobilized to the sensor chip at a high density of 8,000 RU. Serial 2.5-fold dilutions of hFc-OX40L were prepared in sample buffer so that the final concentration of hFc-OX40L, once mixed with an anti-OX40L antibody, ranged between 20 nM to 0.005 nM. Monoclonal anti-OX40L antibody candidates were mixed with each hFc-OX40L dilution in a total of 400 μl so that the final concentration of monoclonal antibody was 0.2 nM. Samples were incubated at room temperature for at least five hours to allow samples to reach equilibrium. Samples were then injected over the immobilized hFc-OX40L surface for 30 minutes at 10 μl/min. After the sample injection, the samples were allowed to dissociate for 3 minutes, and then the surface was regenerated by injecting 8 mM glycine, pH 3.0, 1 M NaCl for 30 seconds. The binding signals obtained were proportional to the free antibody in solution at equilibrium for a given concentration of ligand. Plotting the binding signal versus ligand concentration, and using the scientific graphing software program GraphPad Prizm, the EC₅₀ values for each antibody at a given concentration in the presence of varying concentrations of hFc-OX40L were calculated.
# [6] = molecular target: T1, 018-muOX40L; assay: Luminex bead assay: antigen loaded on biotin beads, antibody titrated, detection anti-huIgG-PE [panel Ab F]
# [7] = molecular target: B5; assay: BIAcore solution equilibrium at 0.2 and 0.6 nM binder, dual-curve one-site fit (KinExA software)
# Description: as §1
binder,measurement,setting,value
B1,IL-2 Inhibition (IC50 [nM]),[1],0.32 nM
same,EC50,[2],1 nM
B2,IL-2 Inhibition (IC50 [nM]),[1],0.49 nM
same,EC50,[2],0.6 nM
B3,IL-2 Inhibition (IC50 [nM]),[1],2 nM
same,EC50,[2],0.1 nM
same,Kd,[3],0.033 nM
same,binding result,[4],no binding (tested: 100 nM)
same,EC50,[5],0.101 nM
B4,IL-2 Inhibition (IC50 [nM]),[1],0.58 nM
same,EC50,[2],0.69 nM
same,EC50,[5],0.686 nM
B5,IL-2 Inhibition (IC50 [nM]),[1],5.2 nM
same,EC50,[2],1 nM
B6,Kd,[3],0.12 nM
same,binding result,[6],no binding (tested: 100 nM)
same,EC50,[5],0.402 nM
B7,Kd,[7],1 nM
